Reference: US20260166115A1, “POLYUNSATURATED FATTY ACID-BOUND ALPHA FETOPROTEIN PROMOTES IMMUNE SUPPRESSION BY ALTERING HUMAN DENDRITIC CELL METABOLISM” (The Regents of the University of California, priority 2022, published 2026)

Experiments:
[1] = test system: iDCs differentiated from monocytes; assay: Microarray gene expression and g:Profiler pathway analysis of treated DCs; type: cell-based, human
Source text: OVA, nAFP, and tAFP-treated DC were lysed, and total mRNA was obtained for microarray (Affymetrix HG-U133A). DE genes were uploaded in g:Profiler in R Studio for pathway analysis and visualization (Raudvere, U. et al. g:Profiler: a web server for functional enrichment analysis and conversions of gene lists (2019 update). Nucleic Acids Res. 47, W191-W198 (2019)).

[2] = test system: monocyte-derived dendritic cells (DCs); assay: Glucose and lactate measurements in DC cultures; type: cell-based, human
Source text: (§1) DCs were differentiated in vitro similarly as previously described (Pardee, A. D., Shi, J. & Butterfield, L. H. Tumor-Derived α-Fetoprotein Impairs the Differentiation and T Cell Stimulatory Activity of Human Dendritic Cells. J Immunol. 193, 5723-5732 (2014)). In brief, cryopreserved PBMC were thawed and CD14*monocytes were magnetically labeled using CD14 MicroBeads (Miltenyi, Cat #130-050-201) and isolated by LS columns (Miltenyi, Cat #130-042-401) per the manufacturer instructions. Viable eluted cells were enumerated using trypan blue on a Nexcelom Cellometer Spectrum. To generate iDCs, monocytes were stimulated for 5 days in the presence of 800 IU/mL of rGM-CSF (Miltenyi, Cat #130-093-862) and 500 IU/mL of rIL-4 (Miltenyi, Cat #130-095-373) as well as OVA, nAFP, or tAFP in CellGenix® GMP DC media (Cat #20801-0500) 37° C. at 5% CO2. Lastly, we performed an additional 24-hour stimulation with 1000 IU/mL of rIFN-γ (Peprotech, Cat #300-02) and 250 ng/mL of LPS (Sigma Aldrich, Cat #L2630-10MG) to produce mDCs. To harvest cells, DC were detached using TrypLE™ Select (Gibco, Cat #12563011) for 15 minutes at 37° C. and then washed several times with cold PBS.
Glucose and lactate were measured by applying approximately 5 μL of supernatant to Clarity BG1000 Blood Glucose strips (Cat #75840-798) and meter (Cat #75840-800) system or the Lactate Plus strips (Nova Biomedical©, Cat #40813) and meter version 2 (Nova Biomedical©, Cat #62624) system. Each meter was quality checked with control glucose and lactate solutions and CellGenix™ media before each experiment.

[3] = test system: monocyte-derived dendritic cells (DCs); assay: SCENITH single-cell energetic metabolism profiling of treated DCs; type: cell-based, human; conditions: mDC HLA-DR+, CD206+, CD86+
Source text: as §1
(§2) SCENITH was performed as described in (Arguello et al., 2020). SCENITH™ reagents kit (inhibitors, puromycin and antibodies) were obtained from www.scenith.com/try-it and used according to the provided protocol for in-vitro derived myeloid cells. Briefly, control and tol-moDC cultures at desired timepoints, were treated for 18 minutes with Control (DMSO), 2-Deoxy-Glucose (2-DG; 100 mM), Oligomycin (0; 1 μM), a combination of 2DG and Oligomycin (DGO) or Harringtonine (H; 2 μg/mL). Following metabolic inhibitors, Puromycin (final concentration 10 μg/mL) was added to cultures for 17 min. After puromycin treatment, cells were detached from wells using TypLE Select (Fisher Scientific, 505914419), washed in cold PBS and stained with a combination of Human TureStain FcX (Biolegend, 422301) and fluorescent cell viability dye (Biolegend, 423105) for 10 min 4° C. in PBS. Following PBS wash step, primary antibodies against surface markers were incubated for 25 min at 4° C. in Brilliant Stain Buffer (BD Biosciences, 563794). Next cells were fixed and permeabilized using True-Nuclear Transcription Factor Buffer Set (Biolegend, 424401) as per manufacturer instructions. Intracellular staining of puromycin and protein targets was performed for 1 h in diluted (10×) permeabilization buffer at 4° C. Finally, data acquisition was performed using the Cytek Aurora flow cytometer. Primary conjugated antibody information used in SCENITH panel is listed in supplementary table 1. All antibodies were titrated to reduce spillover and increase resolution using single stained moDC (generated as described above) samples. Unstained cell controls used for autofluorescence extraction were generated for each time point, culture conditions (control, vitd3-tol-moDC and dexa-vitd3-tol-moDC) and metabolic inhibitor treatments (C, 2DG, O, DGO). Samples were unmixed using reference controls generated in combination with stained Ultracomp beads (Fisher Scientific, 01-2222-41) and stained cells using the SpectroFlo Software v2.2.0.1. The unmixed FCS files were used for data processing and analysis using FlowJo (BD, version 10.7.1). Manually gated CD14-HLA-DR*CD86+ cells were used for downstream analysis. gMFI expression values were imported into R environment for correlation and heatmap analysis using the below described R packages.

mDCs generated in vitro = assay: scMEP single-cell metabolic regulome profiling by CyTOF; type: cell-based, human
Protocol: scMEP analysis was performed as recently described (Hartmann et al., 2021). In short, antibodies targeting metabolic features were conjugated in-house using an optimized conjugation protocol (Hartmann et al., 2019) and validated on multiple sample types. Cells were prepared for scMEP analysis by incubation with small molecules to be able to assess biosynthesis rates of DNA, RNA and protein, cisplatin-based live/dead staining, PFA-based cell fixation and cryopreservation (dx.doi.org/10.17504/protocols.io.bkwkkxcw). Next, cells were stained with metabolic antibodies in a procedure that includes surface staining for 30 min at RT, PFA-fixation for 10 min at RT, MeOH-based permeabilization for 10 min on ice, intracellular staining for 1 h at RT and DNA intercalation (dx.doi.org/10.17504/protocols.io.bntnmeme). Finally, cells were acquired on a CyTOF2 mass cytometer (Fluidigm). Protein targets and antibody information used in scMEP are listed in supplementary table 2. Raw mass spectrometry data were pre-processed, de-barcoded and imported into R environment using the flowCore package (version 2.0.1) (Hahne et al., 2009). Values were arcsin h transformed (cofactor 5) and normalized (Hartmann et al., 2021) for downstream analyses based on previously reported workflow (Nowicka et al., 2017).

[4] = test system: monocyte-derived dendritic cells (DCs); assay: Flow cytometry phenotype of in vitro differentiated DCs treated with OVA, nAFP or tAFP; type: cell-based, human
Source text: as §1, §2

iDCs = assay: Intracellular Zn measurement by flow cytometry; type: cell-based, human; conditions: P=0.0293 vs nAFP, P=0.0228 vs OVA
Protocol: Intracellular Zn was quantified by flow cytometry using the Zinc Assay Kit (Cell-based) (Abcam, Cat #ab241014). Monocytes were differentiated to iDCs as described above in the presence of OVA, nAFP, tAFP, or ZnSO4. […] Cells were stained with LD Aqua for 10 minutes at RT. Cells were washed in 1× Assay Buffer, then stained in 100 μL of Assay Buffer+0.2 μL of Zn Probe for 30 minutes at 37° C. Cells were then washed twice with 1× Assay buffer then stained with HLA-DR-APC-H7 (BD, Clone: GF6-6, Cat #561358, Lot #0023290, 0339025), CD86-BV785 (BioLegend, Clone: IT2.2, Cat #305441, Lot #B277560), CD206 PE-Cy7 (Biolegend, Clone: 15-2, Cat #321123, Lot #B331254), and CD14-BUV805 (BD, Clone: M5E2, Cat #612903, Lot #0297714), in Brilliant Stain Buffer (BD Horizon, Cat #566349, Lot #0121427) for 20 minutes at 4° C. Cells were washed twice in FACS Buffer and fixed in 1% paraformaldehyde (Thermo Scientific, Cat #J19943-K2, Lot #195273, diluted in PBS) for at least 30 minutes before acquisition on a BD LSRFortessam X-50.

dendritic cells (DCs) = conditions: tAFP-treated DCs; cited from earlier work

B1: tAFP: tumor-derived alpha fetoprotein, SEQ ID NO: 1; commercially available (Bio-Rad) (protein, listed as Homo sapiens)
chain: MKWVESIFLIFLLNFTESRTLHRNEYGIASILDSYQCTAEISLADLATIFFAQFVQEATYKEVSKMVKDALTAIEKPTGDEQSSGCLENQLPAFLEELCHEKEILEKYGHSDCCSQSEEGRHNCFLAHKKPTPASIPLFQVPEPVTSCEAYEEDRETFMNKFIYEIARRHPFLYAPTILLWAARYDKIIPSCCKAENAVECFQTKAATVTKELRESSLLNQHACAVMKNFGTRTFQAITVTKLSQKFTKVNFTEIQKLVLDVAHVHEHCCRGDVLDCLQDGEKIMSYICSQQDTLSNKITECCKLTTLERGQCIIHAENDEKPEGLSPNLNRFLGDRDFNQFSSGEKNIFLASFVHEYSRRHPQLAVSVILRVAKGYQELLEKCFQTENPLECQDKGEEELQKYIQESQALAKRSCGLFQKLGEYYLQNAFLVAYTKKAPQLTSSELMAITRKMAATAATCCQLSEDKLLACGEGAADIIIGHLCIRHEMTPVNPGVGQCCTSSYANRRPCFSSLVVDETYVPPAFSDDKFIFHKDLCQAQGVALQTMKQEFLINLVKQKPQITEEQLEAVIADFSGLLEKCCQGQEQEVCFAEEGQKLISKTRAALGV
For B1, which ACS gene [1] is on record?
The ACS gene was “did not reach statistical significance”.

And the “SLC2A3 (GLUT3) gene expression” value [1]?
Its value is “increase”.

And the “gene expression of CPT1A” value [1]?
Its value is “increased”.

What about the “genes involved in fatty acid metabolism (PDH, ACLY, ACC, FASN, LPL, CD36, CACT)” value [1] of the same molecule?
Its value is “downregulation”.

What about the “pathways associated with lipid metabolism” value ([1]; tAFP compared to nAFP) of the same molecule?
The value was “significantly downregulated”.

And the upregulated gene pathways ([1]; tAFP compared to nAFP)?
The upregulated gene pathways was “stress response to metal ions, particularly zinc”.

What about the intracellular glucose [2] of the same molecule?
The intracellular glucose was “increase”.

And the glucose uptake ([2]; DC)?
Its glucose uptake is “take up more glucose”.

What about the “glucose in the culture supernatants” value ([2]; day 6) of the same molecule?
Its value is “significantly less”.

And the “lactate secreted, relative to OVA-treated DCs” value ([2]; media of treated DCs, all HDs)?
The value was “approximately twice”.

What about the “fatty acid and glutaminolysis (FAAO) (SCENITH)” value [3] of the same molecule?
Its value is “reduction”.

And the “glycolysis (SCENITH)” value [3]?
Its value is “dramatic increase”.

What about the “mitochondrial dependency (SCENITH)” value [3] of the same molecule?
The value was “reduction”.

What about the ASCT2 (mDCs generated in vitro) of the same molecule?
Its ASCT2 is “unchanged”.

What about the “ETC/TCA parameters ATP5A, CS and SDHA” value (mDCs generated in vitro) of the same molecule?
The value was “lower”.

What about the GLS (mDCs generated in vitro) of the same molecule?
The GLS was “tended to be lower”.

What about the “amino acid pathway proteins CD98 and G6PD” value (mDCs generated in vitro) of the same molecule?
The value was “significantly decreased”.

And the “expression of DC markers CD206, PD-L1, CD11b, CD1c, HLA-DR, CD86 and CD11c” value (mDCs generated in vitro)?
The value was “reduced expression”.

What about the “glycolysis proteins (GLUT1, GLUT3, LDHA, ENO1, GAPDH, and MTC1)” value (mDCs generated in vitro) of the same molecule?
Its value is “modest differences that were not statistically significant”.

And the “levels of cytochrome C (CytC)” value (mDCs generated in vitro)?
The value was “elevated”.

What about the “FAO or FAS proteins CD36, CDPT1A, HADHA, and ACLY” value (mDCs generated in vitro; mDCs) of the same molecule?
Its value is “decreased”.

And the “expression of pAMPK” value [4]?
The value was “decreased expression”.

What about the “expression of the fatty acid transporter CD36” value [4] of the same molecule?
Its value is “decline”.

And the “co-expression of multiple activation markers (HLA-DR, CD206, CD86, ICOSLG/CD275)” value ([4]; Boolean analysis)?
Its value is “decreased co-expression”.

What about the “DC CD86 expression” value ([4]; tAFP-treated DC) of the same molecule?
Its value is “trend for reduced”.

What about the “DC CD206 expression” value ([4]; tAFP-treated DC) of the same molecule?
Its value is “limited”.

And the “DC HLA-DR expression” value ([4]; tAFP-treated DC)?
The value was “limited”.

What about the “increase in Zn MFI compared to nAFP or OVA-treated iDCs” value (iDCs) of the same molecule?
Its value is roughly 30%.

And the mitochondrial mass (dendritic cells (DCs))?
The mitochondrial mass was “decreased”.
